Literature values as cited in article PMC6705211.
Read-outs that look alike come from different tables or passages of the source. Each block holds one substance with its values, some of them ahead of it.

Assays:
H3K9me3 [1] = target: H3K9me3 (UniProt P68431)
H3K9me3 [2] = target: H3K9me3 (UniProt P68431); remark: listed apart in the source
H3K9me3 [3] = target: H3K9me3 (UniProt P68431); remark: listed apart in the source
H3K9me3 [4] = target: H3K9me3 (UniProt P68431); remark: listed apart in the source

Chain of HP1a chromodomain (P05205 24-82): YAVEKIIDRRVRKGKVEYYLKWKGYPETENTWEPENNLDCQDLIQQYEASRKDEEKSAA
Chain of HP1γ (Q13185 2-183): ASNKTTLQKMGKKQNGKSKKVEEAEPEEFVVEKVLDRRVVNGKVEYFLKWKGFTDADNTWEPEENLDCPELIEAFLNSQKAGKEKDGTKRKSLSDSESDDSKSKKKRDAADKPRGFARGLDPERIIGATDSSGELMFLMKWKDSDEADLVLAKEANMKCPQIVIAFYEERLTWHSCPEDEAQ
Chain of HP1α chromodomain (P45973 20-78): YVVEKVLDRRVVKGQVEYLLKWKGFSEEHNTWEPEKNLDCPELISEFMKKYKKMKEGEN
Chain of HP1β (P83916 whole entry): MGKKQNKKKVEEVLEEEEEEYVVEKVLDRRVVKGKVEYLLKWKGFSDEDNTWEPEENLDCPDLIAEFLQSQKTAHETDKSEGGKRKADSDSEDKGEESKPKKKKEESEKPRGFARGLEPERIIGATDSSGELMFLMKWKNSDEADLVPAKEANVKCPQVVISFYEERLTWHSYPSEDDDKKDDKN

Kd (H3K9me3 [1]): 13 µM
Substance: HP1α chromodomain (from UniProt P45973)

Kd (H3K9me3 [2]): 7 µM
Substance: HP1γ (from UniProt Q13185)

Kd (H3K9me3 [3]): 4 µM
Substance: HP1a chromodomain (from UniProt P05205)

Kd (H3K9me3 [4]): 3 µM
Substance: HP1β (from UniProt P83916)
